Source: paper PMC5430920 (Scientific Reports, 2017)

Target: the molecule itself
Assay: SEC

B1: Mycobacterium tuberculosis orotate phosphoribosyltransferase (enzyme)
chain: MAGPDRAELAELVRRLSVVHGRVTLSSGREADYYVDLRRATLHHRASALIGRLMRELTADWDYSVVGGLTLGADPVATAIMHAPGRPIDAFVVRKSAKAHGMQRLIEGSEVTGQRVLVVEDTSTTGNSALTAVHAVQDVGGEVVGVATVVDRATGAAEAIEAEGLRYRSVLGLADLGLD
notes: also called MtOPRT; M. tuberculosis OPRTase
**Q.** How did the “stoichiometry N” value turn out when B1 was run?
**A.** 2
